Data from patent US20210113615A1 (LUDWIG INSTITUTE FOR CANCER RESEARCH, published 2021).
Read-outs that look alike come from different tables or passages of the source.

Columns and labels:
[1] = target: T1, Bcl-XL (B-cell lymphoma-extra-large), wildtype sequence as tested (human, UniProt Q07817 1-209); test: SPR, Biacore 8K; Bcl-xL immobilized, Des3 variant injected in serial dilutions
T1 construct: It is shorter than full-length Bcl-xL: E96 of the wildtype numbering stands at position 56; Bcl-XL was immobilized in SPR; also called Protein B
Experimental: (§1) Affinity (nM) values were calculated by Surface plasmon resonance (SPR) data on a Biacore 8K device.

[2] = target: T1, Bcl-XL (B-cell lymphoma-extra-large), …; test: method not stated for this value (Example 1); Example 1, binder named 1LE4A; approximate value, method not stated
[3] = target: T1, Bcl-XL (B-cell lymphoma-extra-large), …
[4] = target: T1, Bcl-XL (B-cell lymphoma-extra-large), …; test: SPR, LD3:Bcl-XL binding interaction, sensorgrams with fitted curves
[5] = target: T2, Bcl-2 (BCL-2 sequence as tested in Example 5) (Homo sapiens (Human), UniProt P10415 1-207); test: not stated here (heading in the sequence table); target Bcl-2 (first of the two values, 'respectively')
T2 construct: It was immobilized in SPR

[6] = target: T2, Bcl-2 (BCL-2 sequence as tested in …); test: SPR, Biacore 8K; Bcl-2 immobilized, Des3 variant injected in serial dilutions
Experimental: as §1

T1 sequence (Q07817 other isoform, or with tags, fused parts or gaps limits assumed): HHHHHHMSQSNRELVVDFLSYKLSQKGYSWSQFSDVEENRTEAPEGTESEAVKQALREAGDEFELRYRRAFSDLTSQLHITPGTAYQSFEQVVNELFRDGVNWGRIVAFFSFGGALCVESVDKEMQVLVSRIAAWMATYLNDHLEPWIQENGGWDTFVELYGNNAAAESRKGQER
T2 sequence (P10415 1-207 limits assumed): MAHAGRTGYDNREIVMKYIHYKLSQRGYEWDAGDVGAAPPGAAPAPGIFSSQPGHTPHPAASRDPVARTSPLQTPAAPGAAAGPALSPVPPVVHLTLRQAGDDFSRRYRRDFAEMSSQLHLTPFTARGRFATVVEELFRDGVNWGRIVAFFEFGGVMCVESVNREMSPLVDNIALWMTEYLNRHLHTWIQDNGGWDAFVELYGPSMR

B1: LD3 (lead design 3: Bcl-XL binder designed on human apolipoprotein E4, PDB ID 1LE4 chain A) (designed binder)
chain: HHHHHHQRWELALGRFLEYLSWVSTLSEQVQEELLSSQVTQELRALMDETMKELKAYKSELEEQLTPVAEETRARLSKELQAAQARLGADMEDVRGRLVQYRGEVQAMLGQSTEELRVRLASHLIALQLRLIGDAFDLQKRLAVYQAGA
notes: No single sentence states these identities; also called Des3; DES3
Kd [1]: 4 pM | Kd [2]: ~400 pM | Kd [3]: 4 pM | Kd [4]: ~4 pM | Kd [5]: 800 pM | Kd [6]: 800 pM

B2: Des3a (slightly weaker affinity binder, GLU124ALA) (designed binder)
chain: QRWELALGRFLAYLSWVSTLSEQVQEELLSSQVTQELRALMDETMKELKAYKSELEEQLTPVAEETRARLSKELQAAQARLGADMEDVRGRLVQYRGEVQAMLGQSTEELRVRLASHLIALQLRLIGDAFDLQKRLAVYQAGA
Kd [6]: 16800 pM

B3: Des3c (weakest affinity Des3 binder, ASP240ALA) (designed binder)
chain: QRWELALGRFLEYLSWVSTLSEQVQEELLSSQVTQELRALMDETMKELKAYKSELEEQLTPVAEETRARLSKELQAAQARLGADMEDVRGRLVQYRGEVQAMLGQSTEELRVRLASHLIALQLRLIGAAFDLQKRLAVYQAGA
Kd [6]: 147000 pM

B4: Des3b (medium affinity binder, LEU235ALA) (designed binder)
chain: QRWELALGRFLEYLSWVSTLSEQVQEELLSSQVTQELRALMDETMKELKAYKSELEEQLTPVAEETRARLSKELQAAQARLGADMEDVRGRLVQYRGEVQAMLGQSTEELRVRLASHLIALQARLIGDAFDLQKRLAVYQAGA
Kd [6]: 64100 pM
